The subject of the data set is Escherichia coli TOP10. The experiment in a line: shrunken log2 fold change of peptide-encoding DNA abundance (4.5 h post-induction vs induction); higher = less antimicrobial activity (less host growth inhibition). Conditions: time post-induction: 4.5 h; library: site-saturation at positions 5, 18, 19, 20.
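Also: peptides expressed intracellularly from a pBAD plasmid library in pooled LB shake-flask culture, induced with 0.3% L-arabinose, DNA abundance read by NGS, three biological replicates, DESeq2 with apeglm shrinkage.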

Regarding RRIRRRPPRLPRPRPRPTHDPRP, the “shrunken log2 fold change” value came out at 0.89.

As for RRIRCRPPRLPRPRPRPEKTPRP, the “shrunken log2 fold change” value is -0.0706.

For the sequence RRIRERPPRLPRPRPRPRRLPRP, the “shrunken log2 fold change” value amounted to 0.138.

Take RRIRKRPPRLPRPRPRPCEVPRP: the “shrunken log2 fold change” value was 0.0441.

RRIRVRPPRLPRPRPRPVLNPRP: the “shrunken log2 fold change” value was -0.2.

Turning to RRIRTRPPRLPRPRPRPDEEPRP, the “shrunken log2 fold change” value worked out at 0.0173.

As for RRIRRRPPRLPRPRPRPCNWPRP, the “shrunken log2 fold change” value was -0.0134.

In the case of RRIRPRPPRLPRPRPRPDQQPRP, the “shrunken log2 fold change” value is -0.0644.

Consider RRIRFRPPRLPRPRPRPWNWPRP, for which the “shrunken log2 fold change” value is 0.0169.

As to RRIRMRPPRLPRPRPRPGIMPRP, the “shrunken log2 fold change” value was 0.246.

Consider RRIRNRPPRLPRPRPRPADYPRP, for which the “shrunken log2 fold change” value was -0.24.

For the sequence RRIRVRPPRLPRPRPRPLYQPRP, the “shrunken log2 fold change” value is -0.0431.

As for RRIRGRPPRLPRPRPRPDCIPRP, the “shrunken log2 fold change” value was 0.799.

RRIRYRPPRLPRPRPRPNQIPRP: the “shrunken log2 fold change” value was -0.0468.

As to RRIRARPPRLPRPRPRPTSDPRP, the “shrunken log2 fold change” value amounted to 0.954.

For the sequence RRIRGRPPRLPRPRPRPIEAPRP, the “shrunken log2 fold change” value was found to be 0.377.

With RRIRTRPPRLPRPRPRPMDFPRP, the “shrunken log2 fold change” value stood at 0.0159.

RRIRTRPPRLPRPRPRPRFMPRP: the “shrunken log2 fold change” value is -0.265.

Turning to RRIRMRPPRLPRPRPRPRTTPRP, the “shrunken log2 fold change” value stood at 0.714.

In the case of RRIRYRPPRLPRPRPRPYCEPRP, the “shrunken log2 fold change” value is -0.0996.

With RRIRDRPPRLPRPRPRPAPGPRP, the “shrunken log2 fold change” value turned out to be 0.699.

On to RRIRSRPPRLPRPRPRPPHAPRP, for which the “shrunken log2 fold change” value amounted to 0.629.

RRIRPRPPRLPRPRPRPPTSPRP: the “shrunken log2 fold change” value turned out to be 0.276.

Turning to RRIRSRPPRLPRPRPRPHQFPRP, the “shrunken log2 fold change” value is -0.124.

With RRIRKRPPRLPRPRPRPWIFPRP, the “shrunken log2 fold change” value is 0.287.

For RRIRGRPPRLPRPRPRPSMWPRP, the “shrunken log2 fold change” value came out at 0.291.

Turning to RRIRMRPPRLPRPRPRPNVSPRP, the “shrunken log2 fold change” value worked out at 0.141.

For RRIRQRPPRLPRPRPRPLSSPRP, the “shrunken log2 fold change” value is -0.055.

Turning to RRIRIRPPRLPRPRPRPFWYPRP, the “shrunken log2 fold change” value was determined as 0.00745.

Take RRIRYRPPRLPRPRPRPTFQPRP: the “shrunken log2 fold change” value is -0.0033.

RRIRRRPPRLPRPRPRPNPGPRP: the “shrunken log2 fold change” value is -0.035.

With RRIRQRPPRLPRPRPRPTDPPRP, the “shrunken log2 fold change” value worked out at 0.107.

In the case of RRIRARPPRLPRPRPRPDVGPRP, the “shrunken log2 fold change” value came to 0.0285.

For the sequence RRIRARPPRLPRPRPRPKFSPRP, the “shrunken log2 fold change” value came to 0.173.

In the case of RRIRARPPRLPRPRPRPHRGPRP, the “shrunken log2 fold change” value is 0.14.

As for RRIRYRPPRLPRPRPRPRDHPRP, the “shrunken log2 fold change” value was -0.308.

With RRIRRRPPRLPRPRPRPENVPRP, the “shrunken log2 fold change” value was -0.0722.

Take RRIRFRPPRLPRPRPRPPNVPRP: the “shrunken log2 fold change” value is 0.0696.

Turning to RRIRYRPPRLPRPRPRPDGWPRP, the “shrunken log2 fold change” value turned out to be 0.212.

RRIRKRPPRLPRPRPRPGIAPRP: the “shrunken log2 fold change” value is 1.46.

On to RRIRIRPPRLPRPRPRPDLCPRP, for which the “shrunken log2 fold change” value is -0.101.

Consider RRIRTRPPRLPRPRPRPPHRPRP, for which the “shrunken log2 fold change” value was -0.0645.

RRIRFRPPRLPRPRPRPPGRPRP: the “shrunken log2 fold change” value amounted to 0.637.

For the sequence RRIRSRPPRLPRPRPRPLHTPRP, the “shrunken log2 fold change” value was determined as 0.0576.

With RRIRKRPPRLPRPRPRPLDSPRP, the “shrunken log2 fold change” value amounted to 0.233.

As to RRIRSRPPRLPRPRPRPRIQPRP, the “shrunken log2 fold change” value was -0.00704.

Turning to RRIRMRPPRLPRPRPRPGRDPRP, the “shrunken log2 fold change” value was 1.4.

Take RRIRFRPPRLPRPRPRPLWRPRP: the “shrunken log2 fold change” value is 0.32.

Consider RRIRHRPPRLPRPRPRPAVTPRP, for which the “shrunken log2 fold change” value is -0.1.

On to RRIRVRPPRLPRPRPRPPHWPRP, for which the “shrunken log2 fold change” value was 0.489.

For RRIRGRPPRLPRPRPRPSIPPRP, the “shrunken log2 fold change” value is -0.137.

In the case of RRIRRRPPRLPRPRPRPDVWPRP, the “shrunken log2 fold change” value was determined as 0.611.

Regarding RRIRSRPPRLPRPRPRPTGDPRP, the “shrunken log2 fold change” value amounted to 0.353.

Take RRIRKRPPRLPRPRPRPFMDPRP: the “shrunken log2 fold change” value is 0.0834.

As for RRIRERPPRLPRPRPRPSCQPRP, the “shrunken log2 fold change” value is -0.47.

Turning to RRIRCRPPRLPRPRPRPSVIPRP, the “shrunken log2 fold change” value was -0.0544.

As for RRIRERPPRLPRPRPRPILTPRP, the “shrunken log2 fold change” value is -0.337.

With RRIRARPPRLPRPRPRPRPHPRP, the “shrunken log2 fold change” value was 0.513.

In the case of RRIRPRPPRLPRPRPRPKVYPRP, the “shrunken log2 fold change” value is -0.292.

As to RRIRHRPPRLPRPRPRPPCKPRP, the “shrunken log2 fold change” value is -0.196.

Regarding RRIRGRPPRLPRPRPRPPLHPRP, the “shrunken log2 fold change” value was 0.501.

For the sequence RRIRERPPRLPRPRPRPWYKPRP, the “shrunken log2 fold change” value was -0.0738.

Turning to RRIRFRPPRLPRPRPRPCTKPRP, the “shrunken log2 fold change” value is -0.229.

Turning to RRIRHRPPRLPRPRPRPAVPPRP, the “shrunken log2 fold change” value was 0.0133.

In the case of RRIRDRPPRLPRPRPRPTERPRP, the “shrunken log2 fold change” value amounted to 0.463.

Regarding RRIRCRPPRLPRPRPRPIHSPRP, the “shrunken log2 fold change” value was -0.221.

Take RRIRVRPPRLPRPRPRPYETPRP: the “shrunken log2 fold change” value was 0.0231.

Take RRIRPRPPRLPRPRPRPCHPPRP: the “shrunken log2 fold change” value was -0.154.

With RRIRDRPPRLPRPRPRPRECPRP, the “shrunken log2 fold change” value was 0.0105.

As for RRIRTRPPRLPRPRPRPPQDPRP, the “shrunken log2 fold change” value came to 0.608.

In the case of RRIRARPPRLPRPRPRPLWRPRP, the “shrunken log2 fold change” value was 0.24.

RRIRTRPPRLPRPRPRPQVYPRP: the “shrunken log2 fold change” value is -0.168.

Take RRIRSRPPRLPRPRPRPYGMPRP: the “shrunken log2 fold change” value was -0.0661.

RRIRMRPPRLPRPRPRPDDTPRP: the “shrunken log2 fold change” value was 2.17.

In the case of RRIRVRPPRLPRPRPRPYDAPRP, the “shrunken log2 fold change” value was -0.294.

As for RRIRDRPPRLPRPRPRPPSKPRP, the “shrunken log2 fold change” value came out at 0.0904.

As to RRIRSRPPRLPRPRPRPHKCPRP, the “shrunken log2 fold change” value turned out to be 0.00997.

Turning to RRIRWRPPRLPRPRPRPDPQPRP, the “shrunken log2 fold change” value was -0.00387.

For the sequence RRIRIRPPRLPRPRPRPEAQPRP, the “shrunken log2 fold change” value was 0.0863.

As to RRIRRRPPRLPRPRPRPKKVPRP, the “shrunken log2 fold change” value was determined as 0.242.

Regarding RRIRMRPPRLPRPRPRPGWNPRP, the “shrunken log2 fold change” value stood at 0.226.

For the sequence RRIRVRPPRLPRPRPRPYTAPRP, the “shrunken log2 fold change” value is -0.649.

On to RRIRMRPPRLPRPRPRPKHCPRP, for which the “shrunken log2 fold change” value turned out to be 0.0651.

As to RRIRQRPPRLPRPRPRPCLYPRP, the “shrunken log2 fold change” value is -0.29.

In the case of RRIRHRPPRLPRPRPRPWGAPRP, the “shrunken log2 fold change” value is -0.0102.

Regarding RRIRWRPPRLPRPRPRPPNIPRP, the “shrunken log2 fold change” value is -0.446.

As for RRIRMRPPRLPRPRPRPRDQPRP, the “shrunken log2 fold change” value was found to be 0.776.

As to RRIRHRPPRLPRPRPRPNNSPRP, the “shrunken log2 fold change” value is -1.11.

For RRIRHRPPRLPRPRPRPMSFPRP, the “shrunken log2 fold change” value was -0.089.

For the sequence RRIRQRPPRLPRPRPRPDCEPRP, the “shrunken log2 fold change” value is -0.00144.

Regarding RRIRVRPPRLPRPRPRPPSGPRP, the “shrunken log2 fold change” value was found to be 0.208.

For the sequence RRIRIRPPRLPRPRPRPEQFPRP, the “shrunken log2 fold change” value stood at 0.00851.

As to RRIRYRPPRLPRPRPRPWIYPRP, the “shrunken log2 fold change” value was -0.138.

As to RRIRSRPPRLPRPRPRPRQLPRP, the “shrunken log2 fold change” value was found to be 0.0648.

With RRIRLRPPRLPRPRPRPHMPPRP, the “shrunken log2 fold change” value was -0.222.

In the case of RRIRNRPPRLPRPRPRPHGMPRP, the “shrunken log2 fold change” value is -0.0652.

As to RRIRDRPPRLPRPRPRPHQNPRP, the “shrunken log2 fold change” value was -0.303.

In the case of RRIRCRPPRLPRPRPRPLKCPRP, the “shrunken log2 fold change” value was -0.228.

In the case of RRIRGRPPRLPRPRPRPFCWPRP, the “shrunken log2 fold change” value is 0.551.

With RRIRARPPRLPRPRPRPGWNPRP, the “shrunken log2 fold change” value was found to be 0.545.

With RRIRNRPPRLPRPRPRPLFQPRP, the “shrunken log2 fold change” value was -0.421.

Consider RRIRGRPPRLPRPRPRPYTVPRP, for which the “shrunken log2 fold change” value came out at 0.0498.

For RRIRVRPPRLPRPRPRPMDQPRP, the “shrunken log2 fold change” value was 0.188.

Regarding RRIRLRPPRLPRPRPRPCTLPRP, the “shrunken log2 fold change” value is -0.328.

In the case of RRIRTRPPRLPRPRPRPMTLPRP, the “shrunken log2 fold change” value was -0.028.

Regarding RRIRMRPPRLPRPRPRPNHWPRP, the “shrunken log2 fold change” value worked out at 0.14.

As for RRIRRRPPRLPRPRPRPYSWPRP, the “shrunken log2 fold change” value was -0.275.

With RRIRVRPPRLPRPRPRPNRNPRP, the “shrunken log2 fold change” value is -0.238.

With RRIRMRPPRLPRPRPRPKIVPRP, the “shrunken log2 fold change” value amounted to 0.0132.

For RRIRVRPPRLPRPRPRPCHAPRP, the “shrunken log2 fold change” value is -0.311.

Turning to RRIRQRPPRLPRPRPRPQPMPRP, the “shrunken log2 fold change” value was determined as 0.348.

As to RRIRGRPPRLPRPRPRPPMNPRP, the “shrunken log2 fold change” value came out at 0.464.

Regarding RRIRPRPPRLPRPRPRPKWSPRP, the “shrunken log2 fold change” value was -0.113.

As to RRIRDRPPRLPRPRPRPTHSPRP, the “shrunken log2 fold change” value worked out at 0.177.

RRIRHRPPRLPRPRPRPDTNPRP: the “shrunken log2 fold change” value turned out to be 0.102.

Turning to RRIRQRPPRLPRPRPRPFPGPRP, the “shrunken log2 fold change” value is 0.115.

RRIRFRPPRLPRPRPRPDKLPRP: the “shrunken log2 fold change” value was -0.505.

As for RRIRPRPPRLPRPRPRPGDRPRP, the “shrunken log2 fold change” value is 0.0494.

Turning to RRIRWRPPRLPRPRPRPQLIPRP, the “shrunken log2 fold change” value is -0.153.

As for RRIRFRPPRLPRPRPRPWALPRP, the “shrunken log2 fold change” value worked out at 0.00634.

RRIRPRPPRLPRPRPRPDIKPRP: the “shrunken log2 fold change” value was -0.317.

Take RRIRWRPPRLPRPRPRPCWWPRP: the “shrunken log2 fold change” value is 0.22.

For RRIRERPPRLPRPRPRPHSMPRP, the “shrunken log2 fold change” value was -0.126.

On to RRIRTRPPRLPRPRPRPRVWPRP, for which the “shrunken log2 fold change” value came out at 0.382.

RRIRNRPPRLPRPRPRPKTEPRP: the “shrunken log2 fold change” value was -0.067.

(Values after the supplement of paper PMC9112550, “Optimization of the antimicrobial peptide Bac7 by deep mutational scanning” (BMC Biology, 2022).)
